Laboratory results taken from a protein production outcome set (Wang et al. 2014).

Assay: label from the status in PepcDB records

Row | Sequence | protein production
1 | MIDELRALAVFAKTTETGSFRAAARALGLAPSVVSHHVSQLESRLGVALLYRSTRRLSLTPDGQALYGHAQAMLQAAETGLNELAGRAAEPAGTLRLSLPAFFARGPLTTSLAAFSRCHPKVELELDYSDEKRDLIRDGIDLAIRIGELQDSALKSRRLFDMPRLLVAAPSLLDARGEPASPAELADWPWLGIRMRAKRKTLIDAAGRRHDFAIQPRITANSVDAACQLAIAGCGLATPPAFLVENELAAGQLRVVLPDCQVEALGVYAVWPANAARESLTLRLVRFLAELPPHQ | failed
2 | MIDEWPVPTAAAAVIGPSGVLATHGDDAKPFALASVTKLLVARAAQVAIEEGVVELDTPAGPDGSTVRHLLAHTSGVAMNSADTVAQVGQRRVYSNFGFGLLAHAIEDAAEIEFGRYLTEAVFEPLGMSTSKLLGGADAAGFGVTSTVSDLARFAGDLLRPALVSQQMHDEATSVQFPGVNGVLPGFGSQRPNDWGLGFEIRDGKTPHWTGSSNSPRTFGHFGQSGTFLWVDPVADLALLVLTDRDFGDWTYPLWPAISDGVLREIGTHLEHHHHHH | failed
3 | MIDLKKIKRFAQEIHDKNNDGHGFDHIERVVALARKILLTEPSANQELVLATYLHDTYDEKLTDDVPKQKVKVAQFLNELKIDKKLIDELFMIIDNMSFSSNLIERKTLSLNGQIVQDADRLDAMGAWGIVRTLEYGWAKNRVFYDPNLPPLDYNSKEDYHSQKNNSTLNHFYEKLFLLKDLLNTTEGKRLGEKRDKIMHLFVSQIEEEYKETHLLEHHHHHH | failed
4 | MIDMFPMEKGEEQETYELIVRVFHKYVAPVYSENGVARFLGMLSPEGLSEMNNGKNSFVIVARDQSKIIGMISVINDSHIALFFVSPRYQGKGIGKNILDEAIKNCLNRNPELSAVTVSSSPNSKSFYEEAGFEVIGLEHHHHHH | not failed
5 | MIDNENNVNEPAEEESFAELFEKSNRRTERLRPGSKVDARVLKIGAEWVFLDIGSKGEGVMERKELLDKDGNLTVAEGDTIPVWFVKVERNEMRFTTKVGTGQAGLSALEDAYRAGIPVEGNVEKEIKGGFEIKVGGTVRAFCPYSQISLRRAANPAEFVGRQLLFKVVEFAERGRNIVLSHRAILEEEERQKREALKDTLKEGTTLTGTVTRLMPFGAFVDIGGVEGLIPISEAGWSRVKEIGDVLSVGEQVTALVKRIDWENNKISLSLRDVQADPWEGIAERFPEGSYHTGTVARLAPFGAFVTLAPGIDGLIHISKLGAGKRIAHPREVLKEGDAVEVTVEGVDRESRRLSLALAATKRAAEEEERSIAEFRGKGAAQTKDSMGTFGDILKAQLDDKK | failed
6 | MIDSIRVEGFRGLKELELSSLRRINVIVGRNNSGKSTLLEALSLFLGSSDPGTFGNVLHEILIWRGWYGIQTVDDLFYNGGDSFSISSTGKTLEALNSKHSLEFKLNGEPFYKIDRESIRRLASQAVLLARFSPKENFEFLTPLTFRRFGYAESLYSYAYERKVVKDSIKVLNEAYPEVEGFSPLLKEDNWVLYVETKYGVYPYYLMGEGFKSAMIISFLSSLLRDGVLLIDSAEAFHHPKSLKVMIQTLVRGSEKNNVQVFLTTHSLELLDLMLEMGRDGFVIYMKNVEGRIEVESIEFQRASELRESIGVDLRGFLEHHHHHH | not failed
7 | MIDVINNQAFHLHNDQISYICALLPNGQLGHLYFGPRLSLTKNDLAYLSQGSSPFAWMANFSDDQEFALGDAQQEYPVYGTGDFRQGSLSVTQDDMPIYPNFVFKDDQLTHTKTRDLHHPTSFGNPALTDVLTIHLEDKTAQLLLTLQYTIFADSAAIVRSATLTNQGTAPVMIQRMLSGVLNLPQGRYDVVHLSGNWAKERHIQTQPLTQGTFSVESLRGASSHEQNPFVALHAAGQPFAAGDTYGANLIYSGNFLDSTEVNEWDQTRLLTGIHPASFSWRLDPKTSFTTPETVFSYSSGGLAGLAQANQRFVARHIIDPQWRQKQRPVVLNSWEATYFDLNEKKLLKLAALGKQVGVDCFVLDDGWFGTRDNDLSSLGDWFTNKHKFPDGLGHFAQEIHAMGLQFGLWFEPEMVSPRSQFFQAHPNWVVRPKKGRISITRNQYVLDFSNPAVVNNIFEQMQKVITETNLDYVKWDLNRSITEAFSPYLEKIGHPQGEFFHRYVQGVYTLYQKLLTAFPHLLIEGCAGGGGRFDLGILFYSPQIWTSDDSDAIERLAIQSGMALAYPLSCMSNHVTAVPNEQVGRSTPLVTRFRVAAFGILGYELDLTKLDARTLATIKAQIAYYHALQPLVLKGDFSLLLPRQSNGQNQVAWLLSAHDRKHLVLGFFRVLADADSRTVQYMKVPLAKSDTPYWVNQHTGPISGDVLQRVGVRLPVQFNGANRAQAQLIGDYQSVLLTFDSVASLDHILEHHHHHH | failed
8 | MIEFVYPHTQLVAGVDEVGRGPLVGAVVTAAVILDPARPIAGLNDSKKLSEKRRLALYEEIKEKALSWSLGRAEPHEIDELNILHATMLAMQRAVAGLHIAPEYVLIDGNRCPKLPMPAMAVVKGDSRVPEISAASILAKVTRDAEMAALDIVFPQYGFAQHKGYPTAFHLEKLAEHGATEHHRRSFGPVKRALGLAS | not failed
9 | MIEINIQGSSSAGNNYLLADGNSSLMLEAGLKPKDIMKQGINFSNIQGLLVTHEHGDHSKYINDILLAGRFDVWASRGTLEGLGINRRSHILKANQQQKIGDWLVKPFATIHDDKKARAREPLGFLILSPSGKKIVFATDTNYLPKTFKDVTHWLVECNHDIKLVRQSKLPKSVQDRILRTHMSIDACKKFFQSTDLTKTEEIYLIHLSDKNSDPEKFKEEIEKITNKKIIIA | failed
10 | MIEITFLGGGGGRFVTITQVRATGGFFIKASKNIYVDPGPGALVRMWRYKIDPRKVDVLFISHRHTDHCNDAEVLVEGMTYGVTKKRGTLIGSKSVVHGDENHTPALSKYHLDALEEVHAPNPGDRFKIGEDEMIITPSLHSDPTTIGFRLKTSYGDISYIPDTEYFEELVKWHDGARVIIAAVTRPRDMRIPFHLSSEDAVYLLKSMKQKPEVFIMTHAGMKMHFAGPYKEAQFIQNLTGVKTYVAKEGFKVSIGKEISVKTLRPARFVLEHHHHHH | not failed
11 | MIELEGVPELVDPVMVAAFEGWNDAGDAASTAVAHLDREWKGEVFAALDAEDYYDFQVNRPTVFMEDGVRKITWPTTRLSVVRVGGDKPRDLVLVRGIEPSMRWRSFCNELLGFAHELGVELVVVLGALLGDTPHTRPVPISGTTSDADLARRMDLEETKYEGPTGIVGILQEACTHAGVPAVSLWAAVPHYVSQPPNPKATLALLNRLEDLIGVRVPLGELPEDARAWQVGVDQLAAEDTEVAEYVQSLEEARDTA | not failed
12 | MIELIDPISKQRLEESPEGLRNENGIVVYPLINGAYRVAASDNYTSNFGLEWNTFQKTQIDKFSGNTVSEERLFAQTNWQKNGLEGETILEVGSGAGRFSQIMLDHTKATLYSVDYSEAVEANYRNNGPHERFKLFQASIYELPFKQASFDRVICLGVLQHTPDFKASVKALVEMVKPGGELVIDFYPIRNVFTKVHGKYLLRPILKRVNHHRLMSLIRNNIDFLISIYTFNRRIGLGVFNRFVPICEIERTLPKGMTPEQLKEWIILDTFDMFSPEYDQPQRLSTVAKWVKEFGMADVDASWVTYHGKLEAPTVRGRKVLEHHHHHH | not failed
13 | MIEMAYDDDENSMAIKVWRLYVDLWKLWYKKNERNLNKIDLSITEFTIMRHLIENGPMSMAAIASLINVTPGWITGVVDKMEEKNLVTRNRDSTDRRIIKIAITDRGREVYENAKKNHYAFIRKALAELNENELQQTYVLLQKMMDDVSKLESN | failed
14 | MIETTAALAEACTELAKSEFITIDTEFLRETTFWPELCLVQMASPTLEVLVDPLAKGIDLTPMFELMANPNVVKVFHAARQDIEIIYHLGGLIPHPIFDTQVAAMVCGFGDSISYDQLVQKIKNVQIDKSSRFTDWSRRPLTEKQLDYALADVTHLRDVYLSLKAQLEREGRSLWLTEEMNILESRDTYDMHPDDAWLRLKSRLRKPTELAILKFVAAWREREARSRNVPRSRVLKDDGIFEIAQQQPKDAEALSRLRTIPKGWERSASGTAIIETVNAALALPKEEMPKAPRHSHAPEGSGAAVELLKVLLKLTADKHGVAAKVIANSDDLDKIASEGENATVAALTGWRRELFGDVALKLINGEVALRFAGKKVEAVEVEAAASES | failed
15 | MIEWQLAELIPHAGDMILIDQVLDFDEEQINTRLTVRADGLFNQPDGSLPAWLGIELMAQSVAAYAGCQARSKGEAVKLGFLLGSRKFDCNVARFPAGSELHIHAIRSLQDDSGMGVFECTLTGPDITALARLNVYCPPNTADYLAEGAPALEHHHHHH | not failed
16 | MIFLVYDILLLLLSPLILIHHAWRTVSRGRSFAGFGERFGCIAPESLARVAGKGPIWVHAVSVGETMAVKPLLRELKRRFPERPLVLSSVTETGRSVAVTIPEADLVVYFPFDFGFAVARALRLVAPSLVIVVETEIWPNFLRHARRTGIPSVMVNGRISDRSFPRYLRFSRFFAPILNNLSALCMQSSEDARRIIAVGAPAERVHVTRNLKYDLPVRSLTPAERQELLCSYRLPAGALIITAGSTHAGEEEVVADIYARLAGERSDLFLVLVPRHPERAVEVGTLLEGKGIPFVRRSALDKVQEQPRGGVLLVDTIGELMKLYALSDVVFVGGSLVPVGGHNLLEPASVGAPVLFGPHMHNFREITALVLGAGAGEQVNDHGELEATLRRLLADEPARRSMGENGIRLMADQGGAAARHLEIIGPLIERGSEVARLEHHHHHH | not failed
17 | MIFMHPKTLEILKMFEEINKIPRRSKNEEKLALWLMEWAKNHNFEAKTDALNNVLIKVPPTPGYENSPAIVLQGHMDMVCEKCRDSGHDFSKDPIICIYEGDWLRGDGTSIGADNGIALAIGLVLAESGIKGEIEHPPLELLFTVDEETGLTGASGLEEDFFEGRILLNLDSEDEGIFILGCAGGQNSRIFLPLQWESFDYGKGSGFGLFRISAEGLEGGHSGVEIHRQRANGIQLLARMLSALKEKVGKENLRLVFFSGGSVHNAIPNYAEAFIVLSRNNEKQAEDFVSGLQKSFRGEYAVSDPEITLQLKEVENGIIFEASGGKITRKEVPSDRVFSVETEEKLYGVLLGMPHGVHRVSDTIPGLVETSNNLATVRTGEKEVRIVSSQRSSVMSRLAEVTEKVETVAKLAGARVEHECGYPAWEPDLQSGLLMKCRHAYSGTFGKEPEIKVVHAGLECGVIGSKCECIEMISFGPTIKDPHSPAERVYIPSIEKVWVFLENLMKSYRLEHHHHHH | not failed
18 | MIGFLTDWGLKSHYVGVAKAVIKRINPSAEIIDITHEVEPFNVRKASHVLYRASLDFPPSTVFLVVVDYGVGTSRKAIVMKTKNDQYFVAPDNGVLTVVAEEYGVAEIREIENRELFYKKNPSFTFHGRDIFAPVAAHLDMGLPLERVGDRLLSYEVLKMRKPVVENEKVIGEVAIVDTFGNVSTNIPFDLFLKLSVDFDDVVRVRVGRKEFKAAVAKAFGDVDTGELLVHPDSAGFLEIAVNLGDASQVLSVKEGDEIEICR | not failed
19 | MIGGSIISSNLLIRIFHGSCRKIIAFLFTILSLTLISGVLIYFVEGETGGFISRSSSVYWAITTLLTTGYGDTVLQTNFGRLVASVVKVLGFSIIVAPIVIIITEIYKSLSETSRKTKSLTISPFPLIWRYLNTQYFRML | failed
20 | MIGHRPLLAALERGHCASYTFVMKRRNFFRFSALGLLALAGGGLYARRSSASAYYSGPISDHFDGVRFFNPGGTPPGNFMGLLKWRFNGERATWPETYPSPFPFAKPEARIDGRDMRVTFVGHASFLIQTAGLNILVDPVWSQRTSPLSFAGPKRVNPPGIRFEDLPPIDLVLVTHNHYDHLDMETLKRLHVAHKPLFITPLGNDAVIRTGVEAARIKVGDWGDVVETGSVKIHFEPCHHWSARGLNDRSMALWAAFVIETPGGKIYHIGDTGFHEGLNYGAARKKHGEFRLANLPFGAYEPRWFMKGQHQNPAEAVEGMRLCGAAHVCGHHWGTVQLTDEAVDAPLAALKAALTEQGVEESRFRPMRPGEVFDVPSA | failed
